Changes are numbered by the printed parent chain.
T1: human APRIL in serum of CLL patients (human, UniProt O75888 105-250)
T1 construct: Endogenous soluble APRIL in patient sera (CLL1, CLL3, CLL6, CLL11-20); also called hAPRIL; A Proliferation-Inducing Ligand
T1 sequence (looked up): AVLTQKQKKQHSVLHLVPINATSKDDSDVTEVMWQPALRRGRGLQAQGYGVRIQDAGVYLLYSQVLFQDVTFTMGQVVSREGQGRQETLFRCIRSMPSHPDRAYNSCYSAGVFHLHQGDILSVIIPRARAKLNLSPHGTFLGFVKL

B1: hAPRIL.133 (antibody, IgG1, V domains shown)
VH: QVQLKESGPGLVAPSQSLSITCTVSGFSLTGYGVNWVRQPPGKGLEWLGVIWGDGSTEYNSALKSRLSISKDKSKSQVFLKMNSLQTDDTARYYCARDDDVMDYWGQGTSVTVSS
VL: SIVMTQTPKFLLVSAGDSITITCKADQSVSSDVAWYQQKAGQSPKLLIYYASNRYTGVPDRFTGSGYGTDFTFAISSVQAEDLAVYFCQQDYSSPWTFGGGTKLEIK
notes: constant regions are not; also called hAPRIL.133 mAb; anti-hAPRIL.133 monoclonal antibody
B2: hAPRIL.132 (antibody, IgG1, V domains shown)
VH: QEQLKESGPGLVAPSQSLSITCTVSGFSLTSYGVHWVRQPPGKGLEWLGVIWAGGSTNYNSALMSRLSISRDNSKSQVFLKMNSLQTDDTAMYYCAREGLDTSGFYYAMDYWGQGTSVTVSS
VL: DIQMTQTTSSLSASLGDRVTISCRAGQAISNYLNWYQQKPGGTVKLLIYYTSKLHSGVPSRFSGSGSGTDYSLTISNLEQEDIATYFCQQGYTLPYTFGGGTKLEIK
notes: constant regions are not; also called anti-hAPRIL antibody hAPRIL.132
B3: hAPRIL.135 (antibody, IgG1, V domains shown)
VH: QVQLKESGPGLVAPSQSLSITCTVSGFSLSRYSVHWVRQPPGKGLEWLGMIWGGGSTDYNSALKSRLSISKDNSKRQVFLKMNSLQTDDTAIYYCARSNWEIYALDYWGQGTSVTVSS
VL: DIVLTQSPASLAVSLGQRATISCKASQSIDYDGDNYMNWYQQKPGQPPKLLIYVASSLESGIPARFSGSGSGTDFTLNIHPVEEEDAATYYCQQSNVEPYTFGGGTKLEIK
notes: constant regions are not; also called anti-hAPRIL antibody hAPRIL.135
B4: hAPRIL.138 (antibody, IgG1, V domains shown)
VH: B3 VH with V34I, G42R, S70N, N83H, L105M
VL: B3 VL with A9P, N35R, S57N, N96H, V97E, Y100H
notes: constant regions are not; also called anti-hAPRIL antibody hAPRIL.138

Key:
[1] = target: T1, human APRIL in serum of CLL patients; experiment: ELISA: serum APRIL of CLL1, CLL3 and CLL6 captured by BCMA-Fc (500 or 100 ng/well)
Protocol: To quantify the APRIL serum levels in serum derived from CLL patients using the newly identified APRIL monoclonal antibodies, hAPRIL.130, hAPRIL.132, hAPRIL.133, hAPRIL.135 and hAPRIL.138 the following ELISA assay was performed. […] Next, plates were washed three times with PBS/0.2% Tween and blocked with 150 μl PBS/1% BSA for one hour at 37° C. After washing 3 times with PBS/0.2% Tween 100 μl of samples or standard curves was added. The CLL serum samples were five times diluted in PBS/10% FCS, while standard curve was diluted in PBS+FCS 10%+HS 20%. Samples and standard curve concentrations were incubated for 2 hr at room temperature. Next, plates were washed three times with PBS/0.2% Tween. Next, 100 μl of the anti-APRIL monoclonal antibody was added to the plates at a concentration of 1 μg/ml diluted in PBS/1% BSA and incubated for one hour at 37° C. Subsequently, plates were washed three times with PBS/0.2% Tween and 100 μl of Goat anti-Mouse IgG (H&L) (Southern Biotech, cat number 1031-05), diluted 1:1,000 in PBS/1% BSA was added and incubated for one hour at 37° C. Plates were washed three times with PBS/0.2% Tween and bound immune complexes visualized by addition of 100 μl of TMB substrate (TMB). The reaction was stopped by adding an equal amount of 1 M hydrochloric acid to the reaction volume. Bound APRIL was quantified by measurement of optical density at 450 nm.

[2] = target: T1, human APRIL in serum of CLL patients; experiment: ELISA: serum APRIL captured by BCMA-Fc, antibody at 1 µg/ml, goat anti-mouse IgG detection
Protocol: To quantify the APRIL serum levels in serum derived from CLL patients using the newly identified APRIL monoclonal antibodies, hAPRIL.130, hAPRIL.132, hAPRIL.133, hAPRIL.135 and hAPRIL.138 the following ELISA assay was performed. ELISA plates were coated with 100 μl of 0.5 μg/ml BCMA-Fc (EBC0512081; R&D), in coating buffer (0.2 M Sodium Phosphate, pH=6.5) and incubated overnight at 4° C. Next, plates were washed three times with PBS/0.2% Tween and blocked with 150 μl PBS/1% BSA for one hour at 37° C. After washing 3 times with PBS/0.2% Tween 100 μl of samples or standard curves was added. The CLL serum samples were five times diluted in PBS/10% FCS, while standard curve was diluted in PBS+FCS 10%+HS 20%. Samples and standard curve concentrations were incubated for 2 hr at room temperature. Next, plates were washed three times with PBS/0.2% Tween. Next, 100 μl of the anti-APRIL monoclonal antibody was added to the plates at a concentration of 1 μg/ml diluted in PBS/1% BSA and incubated for one hour at 37° C. Subsequently, plates were washed three times with PBS/0.2% Tween and 100 μl of Goat anti-Mouse IgG (H&L) (Southern Biotech, cat number 1031-05), diluted 1:1,000 in PBS/1% BSA was added and incubated for one hour at 37° C. […] Bound APRIL was quantified by measurement of optical density at 450 nm.

Row | Binder | binding result [1] | binding result [2]
1 | B1 | binds | 
2 | B2 | binds | 
3 | B3 | binds | 
4 | B4 |  | binds

Reference: patent publication US20210325404A1 (ADURO BIOTECH HOLDINGS EUROPE B V, published 2021)
